Measured values reported in US20260042831A1, “METHODS OF TREATING SARCOIDOSIS WITH A TNF-A ANTIBODY AND ASSOCIATED COMPOSITIONS AND METHODS” (XENTRIA, INC., priority 2022, published 2026).

Target: FcγRIIb (UniProt P31994)
Experiment: Octet QK384, FcγRIIb on Ni-NTA biosensors, 6 XTMAB-16 concentrations, 1:2 heterogeneous ligand model fit

FcγRIIb, sequence (P31994 43-217): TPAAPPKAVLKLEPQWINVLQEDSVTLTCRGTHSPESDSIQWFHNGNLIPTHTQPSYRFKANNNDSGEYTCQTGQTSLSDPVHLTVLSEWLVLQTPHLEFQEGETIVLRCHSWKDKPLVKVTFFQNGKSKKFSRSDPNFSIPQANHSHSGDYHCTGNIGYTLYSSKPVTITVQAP

Q: How did the Kd turn out when XTMAB-16 (antibody) was run?
A: The Kd was 640 nM.
